Target: hyaluronidase from bovine testes (bovine)

hyaluronidase inhibition rate (enzyme activity on hyaluronic acid, absorbance at 600 nm) at 500 μM sample, 1 U/mL hyaluronidase: 91%
Substance: NGT-M002 (pvFP-5; Perna viridis foot protein-5) (natural protein)
